Experimental data as given in US20250250593A1, “METHOD FOR PREPARING ALPHA-BRANCHED BETA'-HYDROXY CARBONYL COMPOUNDS BY ENZYMATIC-CATALYZED REDUCTIVE ALDOL REACTION” (Max-Planck-Gesellschaft zur Förderung der Wissenschaften …, priority 2022, published 2025).
Positions count from the first letter of the chain named. Names and notes keep the numbering of the source. Values joined by “and” are separate entries in the source; they are usually repeats but may differ in a detail not shown here. Equal values may be shown once.

Legend:
[1] = molecular target: T1, Kitasatospora setae crotonyl-CoA carboxylase/reductase (KsCcr), wild type (WT), SEQ ID NO: 1 (Kitasatospora setae, UniProt E4N096); assay type: biochemical; conditions: apparent turnover rate with formaldehyde as electrophile; 100 mM K2HPO4 pH 8.0, 30 °C; mean ± standard error
T1 construct: gene provided by JGI
T1 sequence (E4N096 1-445): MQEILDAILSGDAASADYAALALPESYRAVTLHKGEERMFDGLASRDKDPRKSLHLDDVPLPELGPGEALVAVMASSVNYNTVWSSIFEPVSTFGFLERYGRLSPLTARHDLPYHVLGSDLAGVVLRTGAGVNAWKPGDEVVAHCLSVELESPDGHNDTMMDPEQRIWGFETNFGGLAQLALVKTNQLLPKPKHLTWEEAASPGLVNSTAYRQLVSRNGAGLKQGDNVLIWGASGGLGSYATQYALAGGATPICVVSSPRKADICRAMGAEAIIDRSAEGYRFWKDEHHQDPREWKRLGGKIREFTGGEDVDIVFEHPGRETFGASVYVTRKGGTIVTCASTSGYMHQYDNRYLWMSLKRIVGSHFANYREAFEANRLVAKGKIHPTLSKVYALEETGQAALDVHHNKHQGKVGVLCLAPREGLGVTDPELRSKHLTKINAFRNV
Procedure: His-tagged KsCcr and its variants were expressed in E. coli BL21 (DE3). Cells in terrific broth were grown at 37° C. to an OD600=0.8-1.0 upon which expression for 12-16 h at 23° C. was induced by the addition of 500 μM IPTG (Isopropyl-D-β-thiogalactopyranoside). Cells were harvested for 15 min at 7500× g at 4° C. then resuspended in 2 mL of buffer A (50 mM Tris, 500 mM NaCl, 1 M L-Proline, pH=7.5) per gram of pellet. The suspension was treated with […] of DNAse I, 5 mM MgCl2, 10 μg/ml of lysozyme and incubated on ice for 20 min upon which cells were lysed using a sonicator. The lysate was clarified at 45000× g at 4° C. for 40 min and then loaded onto a pre-equilibrated 1 mL HisTrap FF column and washed with 15% buffer B (50 mM Tris, 500 mM NaCl, 1 M L-Proline, 500 mM imidazole, pH=7.5) for 20-30 column volumes until the UV 280 nm reached the baseline level. […]
Formaldehyde stock solution concentration was determined by following the formation of phenylhydrazone at 368 nm (εPhenylhydrazone,368 nm=6.1 mM^−1 cm^−1). […]
For reactions in which the full conversion to the aldol product was achieved assays were performed on a Cary-60 UV/Vis spectrophotometer (Agilent) at 30° C. using quartz cuvettes (1 mm, 3 mm or 10 mm path length; Hellma). […] Kinetic parameters for one substrate were determined by varying its concentration while the others were kept constant at 10 times their KM value.

CcCcrPAG = assay: Substrate promiscuity screen: enoyl-CoAs with aldehydes, LC-MS; assay type: biochemical, Caulobacter crescentus; conditions: six enoyl-CoAs with formaldehyde, acetaldehyde, propionaldehyde, benzaldehyde; with Acx4 and catalase
From the text: According to phylogenetic and structural analysis, KsCcr belongs to the ECR-1 subfamily of enzymes that are mainly restricted to short-chain enoyl-CoAs. To increase the substrate scope of reductive aldol reactions, the inventors sought to use a more promiscuous enzyme. To that end, a triple variant of Caulobacter crescentus crotonyl-CoA carboxylase/reductase (CcCcrC146P/1169A/F373G, here CcCcrPAG) was employed that had been engineered to accept a variety of enoyl-CoAs, including short- and long-chain, branched, aromatic, bulky and halogenated analogs. Six different enoyl-CoA substrates (FIG. 4) were synthesized and tested in combination with four different aldehydes (formaldehyde, acetaldehyde, propionaldehyde, benzaldehyde) and by LC-MS.
Assays were performed in 100 mM K2HPO4 pH=8.0 at 30° C. and 10 μL samples were taken at different time points and quenched with 1 μL of 50% formic acid. The samples were spinned at 17000 g for 10 min at 4° C. to precipitate the protein and then analyzed by LC-MS.
Determination of CoA esters was performed using a HRES-LC-MS. […]

[2] = test system: crotonyl-CoA carboxylase/reductase obtained from Caulobacter crescentus (CcCcr); assay: First empirical data on reductive aldol reaction by CcCcr; assay type: biochemical
Chain of crotonyl-CoA carboxylase/reductase obtained from Caulobacter crescentus (CcCcr) (as listed by the source): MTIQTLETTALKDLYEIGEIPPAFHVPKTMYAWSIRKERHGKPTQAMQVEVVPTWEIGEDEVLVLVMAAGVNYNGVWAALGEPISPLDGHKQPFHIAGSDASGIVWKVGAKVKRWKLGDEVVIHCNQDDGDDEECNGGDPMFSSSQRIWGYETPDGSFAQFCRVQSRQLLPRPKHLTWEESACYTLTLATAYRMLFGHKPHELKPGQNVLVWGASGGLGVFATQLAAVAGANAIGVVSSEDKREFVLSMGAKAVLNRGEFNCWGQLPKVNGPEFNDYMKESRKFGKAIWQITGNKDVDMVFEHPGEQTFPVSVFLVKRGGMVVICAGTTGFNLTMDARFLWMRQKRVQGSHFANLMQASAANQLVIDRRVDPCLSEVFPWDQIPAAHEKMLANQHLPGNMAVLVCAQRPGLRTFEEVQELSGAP

## C/C=C/C(=O)SCCNC(=O)CCNC(=O)[C@H](O)C(C)(C)COP(=O)(O)OP(=O)(O)OC[C@H]1O[C@@H](n2cnc3c(N)ncnc32)[C@H](O)[C@@H]1OP(=O)(O)O [Crotonyl-CoA, crotonyl-CoA]
[1]
  Kcat: 30 s⁻¹ and 30 ± 1 s⁻¹

B1: CcCcrPAG: triple variant of Caulobacter crescentus crotonyl-CoA carboxylase/reductase engineered to accept a variety of enoyl-CoAs, SEQ ID NO: 29 (protein)
chain: MTIQTLETTALKDLYEIGEIPPAFHVPKTMYAWSIRKERHGKPTQAMQVEVVPTWEIGEDEVLVLVMAAGVNYNGVWAALGEPISPLDGHKQPFHIAGSDASGIVWKVGAKVKRWKLGDEVVIHPNQDDGDDEECNGGDPMFSSSQRAWGYETPDGSFAQFCRVQSRQLLPRPKHLTWEESACYTLTLATAYRMLFGHKPHELKPGQNVLVWGASGGLGVFATQLAAVAGANAIGVVSSEDKREFVLSMGAKAVLNRGEFNCWGQLPKVNGPEFNDYMKESRKFGKAIWQITGNKDVDMVFEHPGEQTFPVSVFLVKRGGMVVICAGTTGFNLTMDARFLWMRQKRVQGSHGANLMQASAANQLVIDRRVDPCLSEVFPWDQIPAAHEKMLANQHLPGNMAVLVCAQRPGLRTFEEVQELSGAP
modifications: CcCcr C125P/I148A/F352G
CcCcrPAG
  conversion of enoyl-CoAs to aldol products: catalyzed conversion of all the tested enoyl-CoAs

B2: CcCcr: wild type crotonyl-CoA carboxylase/reductase obtained from Caulobacter crescentus, SEQ ID NO: 2 (protein)
chain: B1 chain with P125C, A148I, G352F
modifications: Caulobacter crescentus CcCCR crotonyl-CoA carboxylase/reductase
[2]
  ability to catalyze a reductive aldol reaction: able to catalyze a reductive aldol reaction
